Test results from patent US20240076371A1, “COMPOSITIONS AND METHODS FOR TREATING OSTEOARTHRITIS, RHEUMATOID ARTHRITIS, AND JOINT AND TENDON DISORDERS” (BOARD OF REGENTS, THE UNIVERSITY OF TEXAS SYSTEM, priority 2021, published 2024).

Columns and labels:
Format in all cases: in vivo, mouse
[1] = system: post-traumatic OA model (DMM) in male C57BL/6 mice; experiment: DMM OA model: Von Frey filament test (paw withdrawal threshold)
Method: (§1) Destabilization of the medial meniscus (DMM) surgery was performed on the right knee joint of mice (Glasson S S, et al. Osteoarthritis and cartilage. 2007; 15(9):1061-9). Briefly, a 3 mm longitudinal incision over the distal patella to proximal tibial plateau was made. The joint capsule immediately medial to the patellar tendon was incised with a #15 blade and the joint capsule opened with micro-iris scissors. Blunt dissection of the fat pad over the intercondylar area was then performed to expose the intercondylar region, providing visualization of the meniscotibial ligament of the medial meniscus. Mild hemorrhage from the fat pad upon blunt dissection was controlled by pressure from absorption spears. Sectioning of medial meniscotibial ligament with micro-surgical knife, with the blade directed proximo-laterally, gave destabilization of the medial meniscus (DMM). Sham surgery was performed with the ligament visualized but not transected.
Animal behavioral tests. The paw withdraw threshold was measured using von Frey filaments 0.007 to 2. Mice were placed in acrylic chambers (5.5×10 cm) suspended above a wire mesh grid and allowed to acclimatize to the testing apparatus for 30 minutes prior to experiments. When the mouse was not moving the von Frey filaments were pressed against the plantar surface of the paw until the filament buckled and held for a maximum of 3 seconds. A positive response was noted if the paw was sharply withdrawn on application of the filament. Flinching immediately upon removal of the filament was also considered a positive response (Chaplan S R, et al. Journal of neuroscience methods. 1994; 53(1):55-63; and Bonin R P, et al. Molecular pain. 2014; 10:26). Testing began with filament number 0.4 and progressed according to an up-down method.

[2] = system: post-traumatic OA model (DMM) in male C57BL/6 mice; experiment: DMM OA model: micro-computed tomography of tibia subchondral bone; details: eight weeks post-surgery, vs saline-treated DMM mice
Method: as §1
Micro-computed tomography. Following behavioral tests, mice were sacrificed and hindlimbs were dissected immediately and fixed in 4% paraformaldehyde. The structural properties of subchondral bone were evaluated using a 3D reconstruction of μCT imaging system (Brüker SkyScan 1173; Brüker microCT, Kontich, Belgium). Samples were scanned in saline with the following settings: 60 kV, […] beam intensity, 0.5 mm aluminum filter, 0.7° rotation step, 4-frame averaging, 1090 ms integration time, 1024×1024 pixel matrix, and a 10 μm isotropic voxel dimension. After scanning, noise was removed from the images by eliminating disconnected objects smaller than 4 pixels in size. Morphometric analysis was performed on 50 slices extending proximally, beginning with the first slice in which the tibia condyles had fully merged. The subchondral bone was segmented from the cortical shell manually on key slices using a contouring tool, and the contours were morphed automatically to segment the trabecular bone on all slices. The morphometry was reconstructed and analyzed. A grayscale value of 95 in a set of 8-bit slices was set as the threshold and was applied to the specimens after comparing grayscale and binarized images in both groups. After thresholding, the BV/TV (%), Tb.Th (mm), Tb.Sp (mm), and Tb.N (mm^−1) were quantified.

[3] = system: post-traumatic OA model (DMM) in male C57BL/6 mice; experiment: DMM OA model: open field test
Method: as §1
Spontaneous locomotor activity was analyzed using the open-field test. Mice were placed into the center of a chamber 25×25×25 cm to allow free exploration. The experiments were performed for 10 minutes. Total travel distance, and immobility time were measured by computerized analysis. Mice behavior was recorded, and videos were analyzed by use of ANY-maze behavior tracking software (Stoelting Co., Wood Dale, IL, USA).

[4] = single i.p. injection, eight weeks after DMM, vs saline
[5] = 4 weeks after DMM, vs saline group

B1: M1 antibody: antibody with variable heavy chain SEQ ID NO: 58 and variable light chain SEQ ID NO: 60; inhibits or blocks opening of Cx43 hemichannel (antibody, V domains shown)
VH: EVQLQQPGAELVKPGASVKLSCKASGYTFTSYYMYWVKQRPGQGLEWIGGINPSNGGTNFNEKFKNKATLTVDKSSSTAYMQLSSLTSEDSAVYYCTREGNPYYTMNYWGQGTSVTVSS
VL: DIVMTQSPSSLSVSAGEKVTMSCKSSQSLLNSGNQKTYLAWYQQKPGQPPKLLIYGASTRESGVPDRFTGSGSGTDFTLTISSVQAEDLAVYYCQNDHSYPFTFGSGTKLEIK
response threshold to mechanical stimuli (von Frey) ([1]; 4 weeks after DMM, vs saline): slight trend of increased response threshold
paw withdrawal threshold relative to saline treated DMM mice ([1]; 8 weeks after DMM, i.p. twice): 121.4%
paw withdraw threshold in sham mice, saline vs antibody ([1]; sham mice at 8 weeks): No difference
paw withdraw threshold to mechanical stimuli (von Frey) [1, 4]: slight trend of increased paw withdraw threshold
bone mineral density (BMD) at the tibia subchondral bone [2]: significantly decreased
bone volume fraction (BV/TV) at the tibia subchondral bone [2]: significantly decreased
trabecular separation (Tb.Sp) at the tibia subchondral bone [2]: elevated
trabecular thickness (Tb.Th) at the tibia subchondral bone [2]: significantly decreased
distance moved (open field) [3, 5]: trend of increased distance moved
immobility time (open field) [3, 5]: decreased immobility time
pain responses: reductions in distance traveled and elevations in immobility time (open field) ([3]; 8 weeks after DMM, i.p. twice): suppressed these pain responses
distance traveled and immobility time in sham mice, saline vs antibody ([3]; sham mice at 8 weeks): No difference
distance traveled (open field) [3, 4]: significant increase
immobility time (open field) [3, 4]: reduction
